Tested on: peptide library, one residue held at a place counted from the S/T acceptor
Experiment: relative phosphorylation of the sub-library (ratio to the mean residue at this position); higher = residue favoured
Settings: human
Procedure, shortened: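 Human or orthologue kinase constructs, purified and recombinant, were incubated under kinase-specific conditions in 384-well plates with biotinylated degenerate peptide sub-libraries. Each sub-library fixed one residue at one position around a central Ser/Thr. Incubations lasted 90 min with peptides at 50 μM and 50 μM ATP spiked with γ-32P-ATP, after which spots on streptavidin membranes were phosphorimaged and quantified by densitometry. Relative sub-library phosphorylation is a ratio to the mean residue at that position.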

Chain of PAK6, construct: aa382-end (Q9NQU5 382-681, looked up): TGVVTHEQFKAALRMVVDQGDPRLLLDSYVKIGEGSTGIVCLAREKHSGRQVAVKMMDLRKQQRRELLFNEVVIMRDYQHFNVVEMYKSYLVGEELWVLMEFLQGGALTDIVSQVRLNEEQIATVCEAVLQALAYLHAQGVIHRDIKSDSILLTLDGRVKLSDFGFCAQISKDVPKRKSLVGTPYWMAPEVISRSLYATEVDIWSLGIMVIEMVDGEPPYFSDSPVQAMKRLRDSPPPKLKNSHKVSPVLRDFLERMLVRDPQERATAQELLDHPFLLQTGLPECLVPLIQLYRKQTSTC
Chain of PLK3, construct: Full length (Q9H4B4 whole entry, looked up): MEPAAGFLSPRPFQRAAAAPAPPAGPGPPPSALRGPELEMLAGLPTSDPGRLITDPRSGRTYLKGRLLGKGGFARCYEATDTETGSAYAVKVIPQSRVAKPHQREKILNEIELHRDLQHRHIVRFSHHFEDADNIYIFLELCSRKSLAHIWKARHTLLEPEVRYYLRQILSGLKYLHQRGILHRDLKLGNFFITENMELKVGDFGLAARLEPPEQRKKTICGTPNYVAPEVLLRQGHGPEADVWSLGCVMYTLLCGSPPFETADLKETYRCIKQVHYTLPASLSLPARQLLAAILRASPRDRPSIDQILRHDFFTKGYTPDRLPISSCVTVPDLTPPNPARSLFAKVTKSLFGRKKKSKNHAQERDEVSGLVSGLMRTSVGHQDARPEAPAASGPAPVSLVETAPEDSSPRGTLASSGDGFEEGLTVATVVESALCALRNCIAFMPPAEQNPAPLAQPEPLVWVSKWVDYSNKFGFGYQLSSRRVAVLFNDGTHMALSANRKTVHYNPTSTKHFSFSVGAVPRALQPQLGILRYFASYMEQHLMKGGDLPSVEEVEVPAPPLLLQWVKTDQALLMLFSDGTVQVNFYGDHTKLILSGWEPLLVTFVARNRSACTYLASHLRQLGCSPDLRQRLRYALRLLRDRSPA
Chain of RIPK3, construct: aa1-313 (Q9Y572 1-313, looked up): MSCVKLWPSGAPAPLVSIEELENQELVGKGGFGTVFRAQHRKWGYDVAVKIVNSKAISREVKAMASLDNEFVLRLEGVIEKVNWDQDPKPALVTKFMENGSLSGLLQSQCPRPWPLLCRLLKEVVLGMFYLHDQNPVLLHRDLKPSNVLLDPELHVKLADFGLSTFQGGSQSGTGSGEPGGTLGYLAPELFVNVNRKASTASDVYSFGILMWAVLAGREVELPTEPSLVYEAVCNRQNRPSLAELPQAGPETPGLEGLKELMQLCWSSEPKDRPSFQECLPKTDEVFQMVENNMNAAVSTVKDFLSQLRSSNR

RIPK3, construct: aa1-313 (from UniProt Q9Y572)
relative phosphorylation
Settings | at +1 | at +2 | at +3 | at +4 | at -1 | at -2 | at -3 | at -4 | at -5
A fixed | 0.854 | 0.673 | 0.422 | 1.03 | 0.762 | 0.87 | 1.02 | 1.03 | 1.16
D fixed | 0.247 | 0.425 | 0.266 | 0.816 | 0.678 | 0.699 | 0.711 | 0.73 | 0.818
E fixed | 0.459 | 0.727 | 0.224 | 0.625 | 0.421 | 0.515 | 0.692 | 0.766 | 0.668
F fixed | 2.07 | 0.902 | 3 | 1.07 | 0.662 | 0.66 | 0.785 | 1.1 | 1.04
G fixed | 0.895 | 0.746 | 0.646 | 1.21 | 0.466 | 1.03 | 1.65 | 1.17 | 1.13
H fixed | 0.695 | 1.3 | 0.615 | 0.944 | 1.28 | 1.29 | 1.19 | 1.05 | 1.22
I fixed | 1.6 | 1.43 | 1.67 | 0.998 | 1.08 | 0.747 | 0.832 | 0.949 | 1.04
K fixed | 1.02 | 1.36 | 0.424 | 1.24 | 2.04 | 0.953 | 1.37 | 1.36 | 1.43
L fixed | 0.935 | 1.61 | 2.54 | 0.991 | 1.27 | 1.2 | 0.922 | 0.873 | 0.912
M fixed | 1.62 | 1.05 | 1.58 | 0.989 | 1.1 | 0.922 | 0.977 | 1.13 | 0.958
N fixed | 0.493 | 0.977 | 0.474 | 0.915 | 1.21 | 1.15 | 0.946 | 1.03 | 0.848
P fixed | 0.148 | 0.548 | 0.253 | 1.22 | 0.783 | 1.73 | 0.992 | 0.862 | 0.894
Q fixed | 1.32 | 1.04 | 0.399 | 0.938 | 0.888 | 0.847 | 0.979 | 0.818 | 0.826
R fixed | 1.76 | 1.31 | 0.669 | 1.15 | 1.73 | 2.22 | 1.48 | 1.23 | 1.12
V fixed | 1.26 | 1.14 | 0.661 | 0.863 | 1.11 | 0.697 | 0.732 | 0.969 | 0.991
W fixed | 0.81 | 0.603 | 1.68 | 1.11 | 0.623 | 0.727 | 0.944 | 0.999 | 0.986
Y fixed | 0.822 | 1.16 | 1.48 | 0.898 | 0.893 | 0.736 | 0.778 | 0.937 | 0.966
pThr fixed | 0.844 | 1.28 | 0.557 | 1.02 | 1.1 | 1.32 | 1.22 | 1.27 | 1.06
pTyr fixed | 0.422 | 0.937 | 0.518 | 0.722 | 0.785 | 0.648 | 0.892 | 0.859 | 0.733

PLK3, construct: Full length (from UniProt Q9H4B4)
relative phosphorylation
Settings | at +1 | at +2 | at +3 | at +4 | at -1 | at -2 | at -3 | at -4 | at -5
A fixed | 0.585 | 0.878 | 0.681 | 0.695 | 0.828 | 0.711 | 0.85 | 0.948 | 1.07
D fixed | 0.463 | 1.91 | 1.91 | 1.6 | 1.79 | 3.16 | 1.45 | 1.38 | 1.13
E fixed | 0.565 | 1.84 | 2.75 | 1.82 | 1.45 | 1.99 | 3.4 | 1.38 | 1.09
F fixed | 3.8 | 1.14 | 0.839 | 1.09 | 0.798 | 0.831 | 1.1 | 0.963 | 1.08
G fixed | 0.491 | 0.475 | 0.766 | 0.819 | 0.519 | 0.688 | 0.865 | 1.05 | 1.16
H fixed | 0.771 | 1.02 | 1.06 | 0.913 | 1.1 | 0.865 | 1.11 | 0.945 | 1.09
I fixed | 0.989 | 1.01 | 0.724 | 0.928 | 0.886 | 0.364 | 0.515 | 0.905 | 0.795
K fixed | 0.517 | 0.343 | 0.519 | 0.61 | 0.76 | 0.418 | 0.535 | 0.932 | 1.2
L fixed | 1.06 | 0.92 | 0.831 | 1.21 | 0.966 | 0.654 | 1.08 | 1.1 | 0.85
M fixed | 1.75 | 1.13 | 0.767 | 1.09 | 1.02 | 0.773 | 1.11 | 0.878 | 0.848
N fixed | 0.526 | 0.973 | 1.16 | 0.935 | 1.3 | 2.15 | 0.842 | 1.02 | 1.11
P fixed | 0.196 | 0.444 | 0.598 | 1.03 | 0.965 | 0.517 | 0.585 | 0.844 | 1.04
Q fixed | 0.93 | 0.714 | 0.876 | 0.881 | 0.929 | 1.06 | 0.778 | 0.831 | 0.757
R fixed | 0.87 | 0.56 | 0.642 | 0.706 | 1.06 | 0.592 | 0.597 | 0.906 | 1.13
V fixed | 0.814 | 0.806 | 0.706 | 0.656 | 0.928 | 0.437 | 0.476 | 0.834 | 0.769
W fixed | 1.04 | 1.51 | 1.1 | 1.12 | 0.566 | 0.654 | 0.934 | 1.19 | 0.964
Y fixed | 1.62 | 1.34 | 1.07 | 0.888 | 1.12 | 1.13 | 0.768 | 0.89 | 0.931
pThr fixed | 1.18 | 1.97 | 1.44 | 2.41 | 0.624 | 0.625 | 0.835 | 1.08 | 0.914
pTyr fixed | 1.06 | 6.48 | 2.1 | 2.03 | 3.06 | 0.735 | 1.01 | 1.17 | 1.11

PAK6, construct: aa382-end (from UniProt Q9NQU5)
relative phosphorylation
Settings | at +1 | at +2 | at +3 | at +4 | at -1 | at -2 | at -3 | at -4 | at -5
A fixed | 0.845 | 5.4 | 1.16 | 1.06 | 0.921 | 0.523 | 0.766 | 1.19 | 1.21
D fixed | 0.225 | 0.407 | 0.707 | 0.827 | 0.361 | 0.117 | 0.216 | 0.554 | 0.759
E fixed | 0.233 | 0.264 | 1.08 | 0.69 | 0.256 | 0.109 | 0.18 | 0.635 | 0.568
F fixed | 1.37 | 0.835 | 0.986 | 0.672 | 1.12 | 0.626 | 0.638 | 0.778 | 0.855
G fixed | 0.376 | 0.695 | 1.18 | 1.29 | 0.619 | 0.31 | 0.553 | 1.24 | 1.19
H fixed | 0.97 | 0.78 | 1.26 | 1.02 | 1.19 | 1.1 | 0.753 | 0.941 | 0.884
I fixed | 1.56 | 0.752 | 0.887 | 0.623 | 1.14 | 0.767 | 1.11 | 1.33 | 1.41
K fixed | 0.887 | 0.594 | 0.818 | 1.31 | 1.76 | 0.97 | 4.26 | 1.63 | 1.59
L fixed | 1.63 | 0.798 | 1.11 | 0.609 | 1.29 | 0.662 | 0.802 | 0.903 | 1.15
M fixed | 1.44 | 0.706 | 1.05 | 0.786 | 1.09 | 0.461 | 0.655 | 0.943 | 0.875
N fixed | 0.49 | 0.704 | 0.72 | 1.03 | 0.917 | 0.276 | 0.479 | 0.792 | 0.873
P fixed | 0.313 | 0.643 | 1.3 | 1.96 | 0.304 | 0.501 | 0.561 | 0.968 | 0.892
Q fixed | 0.693 | 0.526 | 0.909 | 1.15 | 0.78 | 0.456 | 0.674 | 0.81 | 0.784
R fixed | 1.07 | 0.67 | 0.974 | 1.57 | 2.53 | 8.47 | 3.53 | 1.58 | 1.53
V fixed | 1.61 | 1 | 0.897 | 0.753 | 0.627 | 0.5 | 0.742 | 1.19 | 1.02
W fixed | 1.86 | 0.891 | 0.905 | 0.853 | 0.9 | 0.409 | 0.56 | 0.762 | 0.691
Y fixed | 1.42 | 1.33 | 1.07 | 0.807 | 1.2 | 0.737 | 0.525 | 0.755 | 0.731
pThr fixed | 0.461 | 0.494 | 0.647 | 0.905 | 0.272 | 0.192 | 0.315 | 0.558 | 0.665
pTyr fixed | 0.684 | 0.465 | 0.993 | 0.687 | 0.358 | 0.219 | 0.379 | 0.61 | 0.496

MAP3K20, construct: Full length (from UniProt Q9NYL2)
relative phosphorylation
Settings | at +1 | at +2 | at +3 | at +4 | at -1 | at -2 | at -3 | at -4 | at -5
A fixed | 0.455 | 0.721 | 0.832 | 0.953 | 0.78 | 0.903 | 1.01 | 0.913 | 1.12
D fixed | 0.247 | 0.439 | 0.477 | 0.582 | 1.46 | 1.01 | 0.926 | 1.29 | 1
E fixed | 0.359 | 0.359 | 0.543 | 0.629 | 0.797 | 0.946 | 1.13 | 1.14 | 0.884
F fixed | 1.58 | 0.694 | 1.11 | 0.722 | 0.853 | 1.03 | 0.835 | 0.894 | 0.925
G fixed | 0.282 | 0.564 | 0.99 | 1.06 | 1.22 | 1.45 | 1.18 | 1.16 | 1.09
H fixed | 1.07 | 2.45 | 1.13 | 1.14 | 1.79 | 1.61 | 1.2 | 1.13 | 1.1
I fixed | 2.51 | 0.692 | 1.08 | 0.729 | 0.394 | 0.631 | 0.772 | 0.72 | 0.733
K fixed | 0.486 | 1.57 | 1.45 | 2.05 | 1.01 | 0.509 | 0.819 | 1.08 | 1.39
L fixed | 1.3 | 0.646 | 1.07 | 0.672 | 0.679 | 0.858 | 0.952 | 0.736 | 0.812
M fixed | 0.981 | 0.758 | 0.972 | 0.818 | 1.13 | 0.812 | 0.915 | 0.849 | 0.822
N fixed | 0.473 | 0.996 | 0.822 | 0.946 | 1.63 | 1.12 | 1.28 | 1.19 | 1.11
P fixed | 0.261 | 0.41 | 0.771 | 1.16 | 0.632 | 0.693 | 1.23 | 1.07 | 1.03
Q fixed | 0.629 | 0.894 | 0.896 | 1.04 | 1.08 | 0.977 | 0.892 | 0.932 | 0.914
R fixed | 0.557 | 2.15 | 1.42 | 1.72 | 1.12 | 0.662 | 1.01 | 1.11 | 1.14
V fixed | 2.5 | 0.779 | 0.984 | 0.69 | 0.461 | 0.647 | 0.841 | 0.76 | 0.772
W fixed | 1.27 | 1.08 | 1.25 | 1.19 | 0.778 | 2.07 | 1.11 | 1.07 | 1.14
Y fixed | 2.03 | 1.8 | 1.21 | 0.895 | 1.18 | 1.07 | 0.909 | 0.959 | 1.01
pThr fixed | 0.837 | 0.564 | 0.781 | 0.663 | 0.615 | 1.09 | 1.34 | 1.2 | 1.22
pTyr fixed | 0.662 | 0.528 | 0.72 | 0.694 | 0.997 | 0.935 | 1.06 | 0.797 | 1.04
